In patent US20210047402A1 (published 2021):
Numbering of substitutions follows the chain as printed. Where two headings read alike, the source gives them in different places.

B1: anti-CD22 heavy chain-only antibody Clone ID 335232 (antibody, V domains shown)
VH: QLQLQESGPGLVKPSETLSLTCTVSGDSISSGDYYWGWIRQPPGKGLEWIGHIYYSGATYYNPSLKNRVTISVDTSRNQSSLNLSSVTAADTAVYYCTREDSSNWRSRGQGTLVTVSS
B2: anti-CD22 heavy chain-only antibody Clone ID 335201 (antibody, V domains shown)
VH: B1 VH with A58V, S80F, N83K
B3: anti-CD22 heavy chain-only antibody Clone ID 335263 (antibody, V domains shown)
VH: B1 VH with D27G, S30N, S31D, G32N, D33S, Y34H, S80F, N104S
B4: anti-CD22 heavy chain-only antibody Clone ID 335171 (antibody, V domains shown)
VH: B1 VH with D27G, G32S, D33S, H52S, S80F, E100D

Experiments:
human CD22 [1] = molecular target: T1, human CD22 (human, UniProt P20273 20-687); assay: BLI
How it was run: (§1)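 Affinity for human CD22 protein was measured by biolayer interferometry on an Octet QK-384 with anti-human IgG Fc capture biosensors, in 1×PBS, 0.1% BSA, 0.02% Tween-20, pH 7.2. Heavy chain-only antibodies were loaded at 5 μg/mL for 120 seconds, then dipped into a 7-point 1:2 dilution series of CD22 starting at 250 nM, with a buffer-only reference well. Kd was derived as koff/kon from a 1:1 binding model fit in Octet Data Analysis v9.0.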

human CD22 [2] = molecular target: T1, human CD22; assay: BLI; remark: listed apart in the source
How it was run: as §1

T1 sequence (P20273 20-687): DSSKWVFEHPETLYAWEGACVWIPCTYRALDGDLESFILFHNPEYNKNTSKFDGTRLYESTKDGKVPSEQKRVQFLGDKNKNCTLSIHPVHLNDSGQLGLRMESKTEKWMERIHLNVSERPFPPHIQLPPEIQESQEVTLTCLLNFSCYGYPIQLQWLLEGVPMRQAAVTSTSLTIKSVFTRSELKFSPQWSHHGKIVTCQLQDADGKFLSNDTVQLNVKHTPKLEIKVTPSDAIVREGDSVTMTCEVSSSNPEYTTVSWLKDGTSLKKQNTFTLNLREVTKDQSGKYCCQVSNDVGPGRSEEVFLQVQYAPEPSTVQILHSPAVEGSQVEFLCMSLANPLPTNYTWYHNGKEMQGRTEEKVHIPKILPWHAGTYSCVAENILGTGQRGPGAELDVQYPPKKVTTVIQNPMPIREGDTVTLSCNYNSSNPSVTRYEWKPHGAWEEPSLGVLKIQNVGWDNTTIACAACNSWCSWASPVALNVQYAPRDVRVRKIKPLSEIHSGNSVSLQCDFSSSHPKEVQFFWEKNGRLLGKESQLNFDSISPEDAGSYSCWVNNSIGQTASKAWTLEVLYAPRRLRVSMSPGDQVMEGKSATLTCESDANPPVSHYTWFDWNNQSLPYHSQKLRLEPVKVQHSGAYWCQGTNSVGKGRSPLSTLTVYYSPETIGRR

Binder | Kd (human CD22 [1]) [µM] | Kd (human CD22 [2]) [µM]
B1 | 0.0246 | –
B2 | – | 0.00519
B3 | 2.58 | –
B4 | 0.0845 | –
